Assay results: IntAct's records for PubMed 9881977

B1: Early protein (Human adenovirus C serotype 5 (HAdV-5)), P03255-2 (parent)
chain: MRHIICHGGVITEEMAASLLDQLIEEVLADNLPPPSHFEPPTLHELYDLDVTAPEDPNEEAVSQIFPDSVMLAVQEGIDLLTFPPAPGSPEPPHLSRQPEQPEQRALGPVSMPNLVPEVIDLTCHEAGFPPSDDEDEEGPVSEPEPEPEPEPEPARPTRRPKMAPAILRRPTSPVSRECNSSTDSCDSGPSNTPPEIHPVVPLCPIKPVAVRVGGRRQAVECIEDLLNEPGQPLDLSCKRPRP
partner: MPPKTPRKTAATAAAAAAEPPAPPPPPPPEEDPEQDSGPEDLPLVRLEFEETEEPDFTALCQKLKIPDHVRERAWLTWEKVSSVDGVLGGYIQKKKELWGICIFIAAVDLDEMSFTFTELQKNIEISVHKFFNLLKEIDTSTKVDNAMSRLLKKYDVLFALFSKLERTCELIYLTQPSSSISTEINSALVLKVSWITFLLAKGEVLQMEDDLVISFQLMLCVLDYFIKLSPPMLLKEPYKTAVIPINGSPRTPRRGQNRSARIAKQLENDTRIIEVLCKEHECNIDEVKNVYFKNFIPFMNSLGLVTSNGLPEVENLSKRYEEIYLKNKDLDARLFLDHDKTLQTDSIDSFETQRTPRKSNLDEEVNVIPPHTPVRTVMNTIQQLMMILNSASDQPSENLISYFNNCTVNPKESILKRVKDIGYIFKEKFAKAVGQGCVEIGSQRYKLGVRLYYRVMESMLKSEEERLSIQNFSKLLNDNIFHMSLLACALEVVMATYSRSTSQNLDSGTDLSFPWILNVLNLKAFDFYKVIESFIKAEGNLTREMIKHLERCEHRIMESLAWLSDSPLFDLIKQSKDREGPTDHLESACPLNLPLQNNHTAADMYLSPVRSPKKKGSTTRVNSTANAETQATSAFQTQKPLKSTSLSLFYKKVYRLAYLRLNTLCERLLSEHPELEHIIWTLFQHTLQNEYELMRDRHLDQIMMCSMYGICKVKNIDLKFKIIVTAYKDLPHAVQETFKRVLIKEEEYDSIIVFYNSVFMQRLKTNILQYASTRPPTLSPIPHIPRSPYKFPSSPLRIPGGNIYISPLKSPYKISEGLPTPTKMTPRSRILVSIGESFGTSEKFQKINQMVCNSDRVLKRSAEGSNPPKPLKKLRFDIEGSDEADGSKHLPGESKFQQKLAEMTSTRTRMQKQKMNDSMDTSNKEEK
B2: Early protein (Human adenovirus C serotype 5 (HAdV-5)), P03255-2 (parent)
chain: B1 chain

Variants of: B1
Details: with rb_human RB1, P06400
R2G was tested, and the “effect of a mutation on the interaction” value was “decreasing interaction”.

Variants of: B2
Details: with ep300_human EP300, Q09472
Chain of ep300_human EP300, Q09472 (Q09472 whole entry): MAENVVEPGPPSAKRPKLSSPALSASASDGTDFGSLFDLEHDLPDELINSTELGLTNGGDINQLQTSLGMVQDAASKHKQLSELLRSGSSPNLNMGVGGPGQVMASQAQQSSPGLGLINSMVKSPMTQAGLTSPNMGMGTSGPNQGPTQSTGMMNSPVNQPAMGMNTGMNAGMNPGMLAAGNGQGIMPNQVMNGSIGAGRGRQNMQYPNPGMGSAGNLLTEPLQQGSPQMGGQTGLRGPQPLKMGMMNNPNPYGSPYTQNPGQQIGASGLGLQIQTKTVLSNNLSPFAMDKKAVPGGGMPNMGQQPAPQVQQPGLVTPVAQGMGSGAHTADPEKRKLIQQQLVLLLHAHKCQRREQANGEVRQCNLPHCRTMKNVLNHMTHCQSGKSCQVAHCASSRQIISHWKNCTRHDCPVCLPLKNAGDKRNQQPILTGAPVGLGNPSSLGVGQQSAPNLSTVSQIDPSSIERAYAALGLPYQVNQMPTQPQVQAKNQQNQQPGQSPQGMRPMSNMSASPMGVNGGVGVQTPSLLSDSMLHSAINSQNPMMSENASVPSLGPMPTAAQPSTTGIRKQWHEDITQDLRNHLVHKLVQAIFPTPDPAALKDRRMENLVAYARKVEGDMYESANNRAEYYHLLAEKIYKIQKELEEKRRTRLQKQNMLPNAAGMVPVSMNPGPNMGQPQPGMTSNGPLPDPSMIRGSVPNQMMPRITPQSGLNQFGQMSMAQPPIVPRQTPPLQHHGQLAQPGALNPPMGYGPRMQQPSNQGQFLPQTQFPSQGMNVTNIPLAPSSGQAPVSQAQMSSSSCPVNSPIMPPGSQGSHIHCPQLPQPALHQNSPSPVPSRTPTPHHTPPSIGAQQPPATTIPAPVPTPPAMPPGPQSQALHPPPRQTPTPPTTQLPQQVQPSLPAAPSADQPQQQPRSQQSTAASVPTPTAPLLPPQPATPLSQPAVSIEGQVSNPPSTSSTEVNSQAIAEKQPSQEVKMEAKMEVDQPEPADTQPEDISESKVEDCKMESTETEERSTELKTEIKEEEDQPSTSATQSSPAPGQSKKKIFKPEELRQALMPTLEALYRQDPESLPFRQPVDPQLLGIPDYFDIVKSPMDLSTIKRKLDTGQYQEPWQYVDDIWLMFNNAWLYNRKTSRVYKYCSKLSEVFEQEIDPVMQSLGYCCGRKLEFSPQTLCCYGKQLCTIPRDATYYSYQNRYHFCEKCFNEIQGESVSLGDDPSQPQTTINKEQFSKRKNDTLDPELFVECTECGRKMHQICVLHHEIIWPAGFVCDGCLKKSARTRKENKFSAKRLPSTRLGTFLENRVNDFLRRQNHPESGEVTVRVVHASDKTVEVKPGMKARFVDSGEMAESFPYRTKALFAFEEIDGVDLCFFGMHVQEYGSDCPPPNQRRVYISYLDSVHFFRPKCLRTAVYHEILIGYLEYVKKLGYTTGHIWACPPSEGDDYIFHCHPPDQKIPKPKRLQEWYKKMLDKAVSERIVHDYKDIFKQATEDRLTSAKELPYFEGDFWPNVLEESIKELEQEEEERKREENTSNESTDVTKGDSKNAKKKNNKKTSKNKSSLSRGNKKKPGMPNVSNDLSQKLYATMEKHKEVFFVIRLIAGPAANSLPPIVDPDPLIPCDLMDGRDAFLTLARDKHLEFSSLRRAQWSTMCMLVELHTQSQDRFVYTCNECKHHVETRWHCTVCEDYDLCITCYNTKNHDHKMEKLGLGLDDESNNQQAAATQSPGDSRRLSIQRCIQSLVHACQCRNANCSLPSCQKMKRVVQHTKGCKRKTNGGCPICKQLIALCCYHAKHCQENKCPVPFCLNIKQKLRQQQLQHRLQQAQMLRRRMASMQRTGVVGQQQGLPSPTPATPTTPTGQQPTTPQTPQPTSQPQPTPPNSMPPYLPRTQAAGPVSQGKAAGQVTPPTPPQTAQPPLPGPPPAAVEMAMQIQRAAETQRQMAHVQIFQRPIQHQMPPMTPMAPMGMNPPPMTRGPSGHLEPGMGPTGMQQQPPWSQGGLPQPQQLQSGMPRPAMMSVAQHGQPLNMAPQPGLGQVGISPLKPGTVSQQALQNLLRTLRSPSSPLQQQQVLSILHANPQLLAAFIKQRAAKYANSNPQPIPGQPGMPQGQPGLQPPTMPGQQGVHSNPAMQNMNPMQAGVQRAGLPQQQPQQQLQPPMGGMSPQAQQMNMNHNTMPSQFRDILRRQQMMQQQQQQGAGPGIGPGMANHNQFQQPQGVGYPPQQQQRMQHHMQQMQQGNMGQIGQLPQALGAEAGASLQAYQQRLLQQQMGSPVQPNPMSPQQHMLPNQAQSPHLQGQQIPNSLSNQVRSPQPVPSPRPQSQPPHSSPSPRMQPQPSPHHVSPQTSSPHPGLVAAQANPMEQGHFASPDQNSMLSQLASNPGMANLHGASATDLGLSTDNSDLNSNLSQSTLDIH
R2G was tested, and the “effect of a mutation on the interaction” value was “disrupting interaction”.

Variants of: B2
Details: with stat1_human STAT1, P42224
Chain of stat1_human STAT1, P42224 (P42224 whole entry): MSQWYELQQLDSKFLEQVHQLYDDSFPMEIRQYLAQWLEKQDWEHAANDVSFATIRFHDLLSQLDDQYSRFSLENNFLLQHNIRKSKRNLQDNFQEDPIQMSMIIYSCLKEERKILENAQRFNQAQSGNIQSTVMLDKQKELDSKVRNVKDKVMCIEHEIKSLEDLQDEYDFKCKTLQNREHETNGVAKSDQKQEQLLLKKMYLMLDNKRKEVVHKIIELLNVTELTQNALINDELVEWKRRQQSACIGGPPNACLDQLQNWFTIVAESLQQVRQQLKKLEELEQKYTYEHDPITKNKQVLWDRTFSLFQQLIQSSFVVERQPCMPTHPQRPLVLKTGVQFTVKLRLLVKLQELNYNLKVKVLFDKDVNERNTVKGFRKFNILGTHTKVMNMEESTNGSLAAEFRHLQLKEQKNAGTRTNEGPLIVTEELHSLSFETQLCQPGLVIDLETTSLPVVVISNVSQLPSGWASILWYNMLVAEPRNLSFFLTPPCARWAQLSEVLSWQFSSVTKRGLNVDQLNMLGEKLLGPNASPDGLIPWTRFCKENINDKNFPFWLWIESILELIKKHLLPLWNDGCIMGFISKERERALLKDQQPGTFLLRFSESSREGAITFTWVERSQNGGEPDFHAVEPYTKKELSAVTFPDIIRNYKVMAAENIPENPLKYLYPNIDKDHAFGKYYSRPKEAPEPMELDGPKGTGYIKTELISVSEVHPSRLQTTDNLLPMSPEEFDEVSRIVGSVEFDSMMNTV
R2G was tested, and the “effect of a mutation on the interaction” value was “decreasing interaction”.
